Experimental data published in patent US20190381169A1, “PHARMACEUTICAL COMBINATIONS FOR IMMUNOTHERAPY” (Technische Universitat Dresden, priority 2014, published 2019).

Target: T1, p75^NTR (Homo sapiens, UniProt P08138)
T1 sequence (P08138 29-427): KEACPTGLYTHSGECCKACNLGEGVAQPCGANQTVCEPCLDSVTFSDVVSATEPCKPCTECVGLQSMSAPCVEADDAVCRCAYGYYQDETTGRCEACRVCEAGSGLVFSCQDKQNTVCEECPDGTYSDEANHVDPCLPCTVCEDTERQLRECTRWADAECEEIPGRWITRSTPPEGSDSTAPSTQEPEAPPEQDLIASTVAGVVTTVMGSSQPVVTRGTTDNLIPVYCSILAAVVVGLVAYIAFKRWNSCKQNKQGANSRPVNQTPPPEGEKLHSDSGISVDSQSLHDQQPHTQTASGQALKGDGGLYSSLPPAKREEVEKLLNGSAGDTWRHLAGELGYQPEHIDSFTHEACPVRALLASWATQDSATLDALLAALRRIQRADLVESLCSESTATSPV
Experiment: IL-6 produced by anti-FcεRIα activated human PDC (ELISA)
Assay type: cell-based
Set-up: nerve growth factor receptor p75^NTR, which is expressed by human and murine plasmacytoid dendritic cells (PDC); endogenous in cells; host or cells: primary human plasmacytoid dendritic cells (BDCA-4+ selection) from buffy coats or from peripheral blood of allergic donors
Conditions: anti-FcεRIα-FITC activated PDC with NGF 25 ng/ml vs without NGF; p=0.0066
Description: PDC isolated from peripheral blood were taken in RPMI 1640 medium (PAA) with penicillin G (100 U/ml), streptomycin ([…]), L-glutamine (2 mM), 10% heat inactivated FBS and IL-3 (R&D system) at 10 ng/ml. 2×10^5 cells were seeded per well in 200 μl medium in U-shaped bottom 96-well plate and incubated at 5% CO2 and 37° C. For IL-6 generation, mouse anti human FcεRI alpha-FITC (eBioscience) was added at 250 ng/ml to designated wells. p75^NTR blocking peptide TAT-Pep5 (Calbiochem) was employed at 100 nM to designated wells. NGF (R&D Systems) was added at concentration of 25 ng/ml to specified wells. All components were added following the sequence mentioned After 14 hour's stimulation the plate was centrifuged (270 g for 5 minutes). Supernatant was analyzed for IL-6 by ELISA (Bender MedSystems).
IL-6 ELISA was carried out following manufacturer's specifications with few modifications. […] Absorbance of whole plate was read on spectrophotometer at 450 nm as primary wave length and 620 nm as reference wave length. […]
We activated peripheral blood purified PDC by cross linking FcεRIα with anti-FcεRIα-FITC in the presence and absence of NGF at 25 ng/ml in-vitro. Supernatant was harvested after 12 hrs of activation and amount of IL-6 secreted was determined by ELISA. We have analysed 18 buffy coat samples.

## NGF: Nerve growth factor, best characterized neurotrophin; natural p75^NTR agonist (R&D Systems)
  production of IL-6: significantly increased
